# Measured values from US20110059095A1 (Regeneron, published 2011).
# T1: C-terminal biotinylated human PAR-2 peptide SEQ ID NO:880 (Asp-43 to Ala) (human, not fully specified; C-terminal biotin (K-B))
# T1 construct: alanine-scan mutant
# T1 peptide: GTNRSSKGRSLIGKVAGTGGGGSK
# T2: C-terminal biotinylated human PAR-2 peptide SEQ ID NO:873 (Arg-36 to Ala) (human, not fully specified; C-terminal biotin (K-B))
# T2 construct: alanine-scan mutant
# T2 peptide: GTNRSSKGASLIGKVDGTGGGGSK
# T3: C-terminal biotinylated human PAR-2 peptide SEQ ID NO:882 (Thr-45 to Ala) (human, not fully specified; C-terminal biotin (K-B))
# T3 construct: alanine-scan mutant
# T3 peptide: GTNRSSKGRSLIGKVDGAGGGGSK
# T4: C-terminal biotinylated human PAR-2 peptide SEQ ID NO:877 (Gly-40 to Ala) (human, not fully specified; C-terminal biotin (K-B))
# T4 construct: alanine-scan mutant
# T4 peptide: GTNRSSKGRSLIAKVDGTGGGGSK
# T5: C-terminal biotinylated human PAR-2 peptide SEQ ID NO:881 (Gly-44 to Ala) (human, not fully specified; C-terminal biotin (K-B))
# T5 construct: alanine-scan mutant
# T5 peptide: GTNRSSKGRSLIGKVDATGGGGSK
# T6: C-terminal biotinylated human PAR-2 peptide SEQ ID NO:875 (Leu-38 to Ala) (human, not fully specified; C-terminal biotin (K-B))
# T6 construct: alanine-scan mutant
# T6 peptide: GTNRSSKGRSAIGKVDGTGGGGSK
# T7: C-terminal biotinylated human PAR-2 peptide SEQ ID NO:874 (Ser-37 to Ala) (human, not fully specified; C-terminal biotin (K-B))
# T7 construct: alanine-scan mutant
# T7 peptide: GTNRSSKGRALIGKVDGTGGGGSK
# T8: C-terminal biotinylated human PAR-2 peptide SEQ ID NO:879 (Val-42 to Ala) (human, not fully specified; C-terminal biotin (K-B))
# T8 construct: alanine-scan mutant
# T8 peptide: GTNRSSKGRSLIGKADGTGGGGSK
# T9: C-terminal biotinylated human PAR-2 peptide SEQ ID NO:876 (Ile-39 to Ala) (human, not fully specified; C-terminal biotin (K-B))
# T9 construct: alanine-scan mutant
# T9 peptide: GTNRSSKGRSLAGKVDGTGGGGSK
# T10: C-terminal biotinylated human PAR-2 peptide SEQ ID NO:872 (Gly-35 to Ala) (human, not fully specified; C-terminal biotin (K-B))
# T10 construct: alanine-scan mutant
# T10 peptide: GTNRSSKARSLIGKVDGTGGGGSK
# Experiments:
# [1] = molecular target: T1, C-terminal biotinylated human PAR-2 …; assay: BLI Exp1
# Protocol: (§1) In order to more particularly identify the amino acids of PAR-2 with which the PAR-2 antibodies interact, an alanine scanning study was carried out using peptides comprising the activating PAR-2 protease cleavage site.
# (§2) The ability of each peptide mutant to bind to PAR-2 antibodies was measured using biolayer interferometry (Octet Red; ForteBio). Each peptide (2.5 μg/ml) was captured on streptavidin coated biosensor tips (Octet SA sensor) for 10 seconds. To measure binding and dissociation between each peptide and PAR-2 antibody, the peptide-coated biosensors were contacted with 200 nM solutions of PAR-2 antibodies for 5 minutes (binding) followed by transfer to buffer with no antibody for 10 min (dissociation). […] The results are expressed as percent binding and percent T_{1/2} relative to WT peptide (Tables 24-28).
# [2] = molecular target: T2, C-terminal biotinylated human PAR-2 …; assay: BLI Exp1
# Protocol: as §1, §2
# [3] = molecular target: T3, C-terminal biotinylated human PAR-2 …; assay: BLI Exp1
# Protocol: as §1, §2
# [4] = molecular target: T4, C-terminal biotinylated human PAR-2 …; assay: BLI Exp1
# Protocol: as §1, §2
# [5] = molecular target: T5, C-terminal biotinylated human PAR-2 …; assay: BLI Exp1
# Protocol: as §1, §2
# [6] = molecular target: T6, C-terminal biotinylated human PAR-2 …; assay: BLI Exp1
# Protocol: as §1, §2
# [7] = molecular target: T7, C-terminal biotinylated human PAR-2 …; assay: BLI Exp1
# Protocol: as §1, §2
# [8] = molecular target: T8, C-terminal biotinylated human PAR-2 …; assay: BLI Exp1
# Protocol: as §1, §2
# [9] = molecular target: T9, C-terminal biotinylated human PAR-2 …; assay: BLI Exp1
# Protocol: as §1, §2
# [10] = molecular target: T10, C-terminal biotinylated human PAR-2 …; assay: BLI Exp1
# Protocol: as §1, §2
# [11] = molecular target: T2, C-terminal biotinylated human PAR-2 …; assay: alanine scan by biolayer interferometry (Octet Red): C-terminal biotin peptide on streptavidin tips, 200 nM antibody; T1/2 relative to wild-type peptide SEQ ID NO:871
# Protocol: as §1, §2
# [12] = molecular target: T3, C-terminal biotinylated human PAR-2 …; assay: as above
# Protocol: as §1, §2
# [13] = molecular target: T5, C-terminal biotinylated human PAR-2 …; assay: as above
# Protocol: as §1, §2
# [14] = molecular target: T6, C-terminal biotinylated human PAR-2 …; assay: as above
# Protocol: as §1, §2
# [15] = molecular target: T7, C-terminal biotinylated human PAR-2 …; assay: as above
# Protocol: as §1, §2
# [16] = molecular target: T8, C-terminal biotinylated human PAR-2 …; assay: as above
# Protocol: as §1, §2
# [17] = molecular target: T10, C-terminal biotinylated human PAR-2 …; assay: as above
# Protocol: as §1, §2
% Rel Binding [1] [%],% Rel T1/2 [1] [%],% Rel Binding [2] [%],% Rel T1/2 [2] [%],% Rel Binding [3] [%],% Rel T1/2 [3] [%],% Rel Binding [4] [%],% Rel T1/2 [4] [%],% Rel Binding [5] [%],% Rel T1/2 [5] [%],% Rel Binding [6] [%],% Rel T1/2 [6] [%],% Rel Binding [7] [%],% Rel T1/2 [7] [%],% Rel Binding [8] [%],% Rel T1/2 [8] [%],% Rel Binding [9] [%],% Rel T1/2 [9] [%],% Rel Binding [10] [%],% Rel T1/2 [10] [%],Binder,also measured
18,36,87,122,65,129,101,33,67,117,9,0.4,45,7,36,1,8,0.2,78,118,"H4H581P (antibody, human IgG4, V domains shown, also called mAb H4H581P; H1H581P variable regions) VH: QVQLVESGGGVVQPGRSLRLSCVASGFTFSRYGIHWVRQAPGKGLEWVIVISYDGINKYYADSVKGRFTISRDNSKNTVYLQMNSLRAEDTAVYYCAKGDFWSGYFDYWGQGTLVTVSS VL: DIVMTQTPLSSPVTLGQPASISCRSSQSLVHSDGNTYLSWLHQRPGQPPRLLIYKISNRFSGVPDRFSGSGAGTDFTLQISRVEAEDVGIYYCMQATQFPTFGGGTKVEIK",percent of T1/2 relative to wild-type peptide (average of duplicate experiments) [11]: 106%; percent of T1/2 relative to wild-type peptide (average of duplicate experiments) [12]: 112%; percent of T1/2 relative to wild-type peptide (average of duplicate experiments) [13]: 121%; percent of T1/2 relative to wild-type peptide (average of duplicate experiments) [14]: 0.2%; percent of T1/2 relative to wild-type peptide (average of duplicate experiments) [15]: 5%; percent of T1/2 relative to wild-type peptide (average of duplicate experiments) [16]: 1%; percent of T1/2 relative to wild-type peptide (average of duplicate experiments) [17]: 118%
35,4,208,100,125,94,30,1,81,1,127,100,119,100,74,1,92,36,122,100,"H4H588N (antibody, human IgG4, V domains shown, also called H2M588N variable regions) VH: EVQLLESGGGLVQPGGSLRLSCAASGFTFSSYAMTWVRQAPGKGLYWVSAISGGRGSAYYADSVKGRFTISRDNSKNTLYLQMNSLRAEDTAVYYCAKEGDSGYDLAYWGRGTLVTVSS VL: DIQMTQSPSSLSASVGDRVTITCRARQGISNNLAWLQQKPGKAPKSLIYAASSLQSGIPSKFSGSGSGTYFTLTISSLQPEDFATYYCQQYKSSPLTFGGGTKVEIK",percent of T1/2 relative to wild-type peptide (average of duplicate experiments) [11]: 140%; percent of T1/2 relative to wild-type peptide (average of duplicate experiments) [12]: 64%; percent of T1/2 relative to wild-type peptide (average of duplicate experiments) [13]: 1%; percent of T1/2 relative to wild-type peptide (average of duplicate experiments) [14]: 71%; percent of T1/2 relative to wild-type peptide (average of duplicate experiments) [15]: 85%; percent of T1/2 relative to wild-type peptide (average of duplicate experiments) [16]: 0.5%; percent of T1/2 relative to wild-type peptide (average of duplicate experiments) [17]: 177%
